As usually defined, the IC50 is the concentration needed to halve the response being measured. Low values mean inhibition by little substance, high ones a need for much substance. What is called EC50 is the midpoint of the concentration-response curve.

Substitutions are numbered along the chain they refer to.

T1: recombinant human Siglec15-his protein (human, UniProt Q6ZMC9 20-263)
T1 construct: In house made; Biotin-labeled in the capture ELISA
T1 sequence: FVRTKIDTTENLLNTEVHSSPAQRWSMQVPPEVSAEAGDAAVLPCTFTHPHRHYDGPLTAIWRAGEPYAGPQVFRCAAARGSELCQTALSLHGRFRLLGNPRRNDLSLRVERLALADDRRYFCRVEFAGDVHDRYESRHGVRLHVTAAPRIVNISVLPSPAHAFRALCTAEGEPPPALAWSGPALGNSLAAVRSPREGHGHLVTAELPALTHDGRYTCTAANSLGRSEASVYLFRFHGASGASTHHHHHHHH

B1: anti-Siglec15 benchmark (ch5G12) (antibody, human IgG1, kappa, V domains shown)
VH: QVQLQQPGAELVKPGASVKMSCKASGYTFTSYWITWVIQRPGQGLEWIGDIYCGSDTMHYNEKFKNKATLTVDTSSSTAYMQLSSLTSEDSAVYYCARWWDYGSSYDYFDYWGQGTTLTVSS
VL: DIKMTQSPSSMYASLGERVTITCKASQDINSYLSWFQQKPGKSPKTLIYRANRLVDGVPSRFSGSGSGQDYSLTISSLEYEDMGIYYCLQYDEFPYTFGGGTKLEIKR
notes: ch5G12 (US 20190202912A1); also called BM; Siglec15-ch5G9
B2: A2A5C7E8 (antibody, V domains shown)
VH: EVQLVQSGAEVKKPGESLRISCKGSGYSFTTYWISWVRQMPGKGLEWMGLIDPSDSYTNYSPSFQGHVTISTDKSISTAYLQWSSLKASDTAMYYCARGGYYGSEEDYWGQGTLVTVSS
VL: EIVLTQSPGTLSLSPGERATLSCRASQSVSSSRLAWFQQKSGQAPRLLIFDASSRATGIPDRFSGSGSGTDFTLTISRLEPEDFAVYYCQQYGSSPRTFGQGTKVEFK
notes: Fully human antibody from transgenic mouse hybridoma; also called A2A5C7E8-1
B3: A2A5C7E8-2 (antibody, human IgG1, kappa, V domains shown)
VH: B2 VH with D55E
VL: EIVLTQSPGTLSLSPGERATLSCRASQSVSSSRLAWFQQKSGQAPRLLIFDASSRATGIPDRFSGSGSGTDFTLTISRLEPEDFAVYYCQQYGSSPRTFGQGTKVEFKR
notes: Variant of A2A5C7E8 modified in VH CDR2 (X1 = E)
B4: A2A5C7E8-3 (antibody, human IgG1, kappa, V domains shown)
VH: B2 VH with Q65K
VL: B3 VL
notes: Variant of A2A5C7E8 modified in VH CDR2 (X2 = K)
B5: A1E10G7H9 (antibody, V domains shown)
VH: QVQLQESGPGLVKPSGTLSLTCAVSGGSISSSNWWHWVRQPPGKGLEWIGEIYHSGNTNYKPSLKSRVTISVDKSKNQFSLKLSSVTAADTAVYYCARDEGNGWSNAFDIWGQGTMVTVSS
VL: ENVLTQSPGTLSLSPGERVTLSCRASQSVSSSYLAWYQQKPGQAPRFLIYGASGGATGIPDRFSGSGSGTDFTLTISRLEPEDFAVYYCQQYGSSPITFGQGTRLEIK
notes: Fully human antibody from transgenic mouse hybridoma
B6: B2D7H7A3C1 (antibody, V domains shown)
VH: QVQLQQSGAELVRPGTSVQMSCKAAGYTFTNYWIGWVKQRPGHGLEWVGDIHPGINYTNNNEKFRGKATLTADTSSNTAYMQLRGLTSDDSAIYYCARVDYDYDGSYIMDYWGQGTSVTVSS
VL: QIVLSQSPALLSASPGEKVTMTCRASSSVSYMYWYQQKPGSSPKPWIYATSNLTSGVPARFSGSGSGTSYSLTISRVEAEDAATYFCQQWNSKPWTFGGGSKLEIR
notes: Mouse monoclonal antibody from hybridoma; also called mouse B2D7H7A3C1
B7: B2H2H1H7 (antibody, V domains shown)
VH: B6 VH with N77S
VL: B6 VL with V3I, K102R
notes: Mouse monoclonal antibody from hybridoma; also called mouse B2H2H1H7; B2H2H1A7
B8: B2G12H3E8 (antibody, V domains shown)
VH: B6 VH with Q5K, A25V, N77S
VL: B6 VL
notes: Mouse monoclonal antibody from hybridoma; also called mouse B2G12H3E8

One assay has as its target T2, human Siglec15-Fc protein (human).
T2 construct: In house made; also called recombinant human Siglec15 protein with human IgG1 Fc at the C-terminus
The assay is described as follows: competitive ELISA: biotin-labeled human Siglec15-Fc in solution, competitor coated benchmark. How it is done:
The abilities of the anti-Siglec15 antibodies of the disclosure to block benchmark-human Siglec15 binding were measured in a competitive ELISA assay. Briefly, the benchmark was coated on 96-well micro plates at 2 μg/mL in PBS, 100 μl per well, and incubated for 2 hours at 37° C. Then plates were washed once with wash buffer, and blocked with 5% w/v non-fatty milk in PBST overnight at 4° C. The next day, the anti-Siglec15 antibodies of the disclosure or controls were diluted with biotin labeled human Siglec15-Fc protein (prepared in-house with SEQ ID NO: 19, 37 ng/ml in PBST with 2.5% w/v non-fatty milk), starting at 80 nM with a 4-fold serial dilution, and incubated at room temperature for 40 minutes. After plate washing 4 times, the antibody/Siglec15-Fc mixtures were added to benchmark coated plates, 100 μl per well. After incubation at 37° C. for 40 minutes, plates were washed 4 times again using wash buffer. Then the plates were added and incubated with 100 μl/well streptavidin conjugated HRP for 40 minutes at 37° C. Plates were washed again using wash buffer. Finally, TMB was added and the reaction was stopped using 1M H₂SO₄, and the absorbance of each well was read on a microplate reader using dual wavelength mode with 450 nm for TMB and 630 nm as the reference wavelength, then the OD (450-630) values were plotted against antibody concentration. Data was analyzed using Graphpad Prism software and IC₅₀ values were reported.
(An ELISA detects its analyte on a solid surface through an enzyme-linked reagent.)
Target sequence in this assay (chain, as listed by the source limits assumed): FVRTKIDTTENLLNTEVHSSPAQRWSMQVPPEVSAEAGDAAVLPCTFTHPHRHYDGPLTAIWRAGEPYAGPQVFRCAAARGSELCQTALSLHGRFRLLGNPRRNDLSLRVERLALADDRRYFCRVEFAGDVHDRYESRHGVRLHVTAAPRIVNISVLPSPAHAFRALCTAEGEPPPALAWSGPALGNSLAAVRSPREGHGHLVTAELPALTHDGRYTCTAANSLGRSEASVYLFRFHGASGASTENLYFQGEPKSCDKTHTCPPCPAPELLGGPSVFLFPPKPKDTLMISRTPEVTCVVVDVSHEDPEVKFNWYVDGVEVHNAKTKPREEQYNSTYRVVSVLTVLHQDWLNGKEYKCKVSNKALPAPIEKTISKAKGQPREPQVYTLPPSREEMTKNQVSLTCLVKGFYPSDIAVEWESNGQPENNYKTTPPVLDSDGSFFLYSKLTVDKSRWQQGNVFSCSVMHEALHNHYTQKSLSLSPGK
For B1, the IC50 stood at 0.229 nM.
B2: the IC50 is 0.0387 nM.
For B3, the IC50 came to 0.0178 nM.
Regarding B4, the IC50 worked out at 0.0357 nM.

In a further assay the target is T2, human Siglec15-Fc protein. The assay can be described thus: competitive ELISA: coated human Siglec15-Fc, blocked ligand biotin-labeled human LRRC4C-Fc. As to the method: (§1) Serially diluted anti-Siglec15 antibodies or the controls (starting at 66.67 nM with a 5-fold serial dilution) in PBST with 2.5% w/v non-fatty milk were added to the Siglec15-Fc bound plates, 100 μl per well, and incubated with the human Siglec15-Fc protein at 37° C. for 40 minutes. Plates were washed 4 times again using wash buffer, then added and incubated for 40 minutes at 37° C. with 100 μl/well 290 ng/ml biotin-labeled human LRRC4C-Fc protein (prepared in-house with SEQ ID NO: 23). Plates were washed again using wash buffer. Thereafter, the plates were added with 100 μl/well streptavidin conjugated HRP (1:5000 dilution in PBST buffer, Jackson Immunoresearch, Cat #016-030-084) and incubated for 40 minutes at 37° C. Plates were washed again using wash buffer. Finally, TMB was added and the reaction was stopped using 1M H₂SO₄, and the absorbance of each well was read on a microplate reader using dual wavelength mode with 450 nm for TMB and 630 nm as the reference wavelength, then the OD (450-630) values were plotted against antibody concentration. Data was analyzed using Graphpad Prism software and IC₅₀ values were reported.
The molecule B5 gave an IC50 of 1.24 nM.
On the same count and under the same terms, for B1 the value was 0.751 nM; for B2, 0.84 nM.

The target of a further assay is T1, recombinant human Siglec15-his protein. The assay can be described thus: capture ELISA, captured antibody, biotin-labeled human Siglec15-his in solution. How it is done:
(§2) Briefly, 96-well plates were coated with 100 μl of 2 μg/ml AffiniPure Goat Anti-Human IgG F(ab′)₂ fragment specific (Jackson Immuno Research, Cat #109-005-097) in PBS for 2 hours at 37° C. Plates were washed once with wash buffer (PBS+0.05% v/v Tween-20, PBST) and then blocked with 200 μl blocking buffer (5% w/v non-fatty milk in PBST) overnight at 4° C. Plates were washed 4 times and respectively incubated with 100 μl serially diluted anti-Siglec15 antibodies of the disclosure, the benchmark and hIgG (human immunoglobulin (pH4) for intravenous injection, Hualan Biological Engineering Inc.), 5-fold dilution in 2.5% w/v non-fatty milk in PBST starting at 66.7 nM, for 40 minutes at 37° C., and then washed 4 times again. Plates containing captured antibodies were incubated with 100 μl biotin-labeled human Siglec15-his protein (in house made with SEQ ID NO: 20, 145 ng/ml in 2.5% w/v non-fatty milk in PBST) for 40 minutes at 37° C., washed 4 times, and incubated with streptavidin conjugated HRP (1:10000 dilution in PBST, Jackson Immuno Research, Cat #016-030-084, 100 μl/well) for 40 minutes at 37° C. After a final wash, plates were incubated with 100 μl/well ELISA substrate TMB (Innoreagents, Cat #TMB-S-002). The reaction was stopped in 4 minutes at room temperature with 50 μl/well 1M H₂SO₄, and the absorbance of each well was read on a microplate reader using dual wavelength mode with 450 nm for TMB and 630 nm as the reference wavelength, then the OD (450-630) values were plotted against antibody concentration. Data was analyzed using Graphpad Prism software and EC₅₀ values were reported.
Turning to B6, the EC50 worked out at 0.101 nM.
Same read-out and setting: the result for B7 reads 0.0937 nM; that for B8, 0.0859 nM; that for B1, 1.64 nM.

A further assay shares this target. Described as above. The source holds these as a separate data set. As to the method:
as §2
B5: the EC50 stood at 0.252 nM.
Still for that read-out and setting: for B1 the value was 2.93 nM; for B2, 0.232 nM.

A further assay concerns the target T2, human Siglec15-Fc protein. The assay can be described thus: competitive ELISA: coated human Siglec15-Fc, blocked ligand biotin-labeled human LRRC4C-Fc. This is another data set of the same source. As to the method:
as §1
Target sequence in this assay (chain, as listed by the source limits assumed): as above
Molecule B1 had an IC50 of 0.674 nM.
Still for that read-out and setting: the result for B2 reads 0.394 nM; that for B3, 0.446 nM.
On the same count and under the same terms, the result for B4 reads 0.546 nM.

For the origin of these results see US20230106715A1 (BIOSION, published 2023).
